From the DeepSol protein solubility set

Test: soluble on expression in E. coli; label from the status in PepcDB or PDB records

Sequence	soluble on expression in E. coli
MKQLYATIRFNGYEEAADKGDLAVHKLVAAALDDAEASLKDLFAQQIFGDGTGNSGKDLTGLKAYVDDGTAVAVYGGIDRATNPWWKANVKKSANNKVLDIKQMREVFAKCSRGGMENKPDFIVTDLNTWLQYAELVDGKTTIQQPLGKVAEEFANLGFAQLSFMGIPVVYDEYCPAYTMYFINSNTFQLYGKPGRMFTTSEIVKIPDEDSKVGQIFFAGEFVGTEPRANGRLDLTVS	not soluble
MQRYKLPVSVLVVIYTADLQVLLLERADHPGYWQSVTGSQDPGETLLQTAVREVREETGLNTDDYVLSDWQIQNRYEIFEEWNWRYPPGTTHNTEHVFGLELPKTIPAVVSSREHLGYVWLPWREAAEKVFSSSNACAIRMLASKRKSENSR	not soluble
MEKKHIYLFCSAGMSTSLLVSKMRAQAEKYEVPVIIEAFPETLAGEKGQNADVVLLGPQIAYMLPEIQRLLPNKPVEVIDSLLYGKVDGLGVLKAAVAAIKKAAAN	soluble
MAHHHHHHMCKDKNEKKNYEHVNANEKNGYLASEKNELTKNKVEEHTYDYDYVVIGGGPGGMASAKEAAAHGARVLLFDYVKPSSQGTKWGIGGTCVNVGCVPKKLMHYAGHMGSIFKLDSKAYGWKFDNLKHDWKKLVTTVQSHIRSLNFSYMTGLRSSKVKYINGLAKLKDKNTVSYYLKGDLSKEETVTGKYILIATGCRPHIPDDVEGAKELSITSDDIFSLKKDPGKTLVVGASYVALECSGFLNSLGYDVTVAVRSIVLRGFDQQCAVKVKLYMEEQGVMFKNGILPKKLTKMDDKILVEFSDKTSELYDTVLYAIGRKGDIDGLNLESLNMNVNKSNNKIIADHLSCTNIPSIFAVGDVAENVPELAPVAIKAGEILARRLFKDSDEIMDYSYIPTSIYTPIEYGACGYSEEKAYELYGKSNVEVFLQEFNNLEISAVHRQKHIRAQKDEYDLDVSSTCLAKLVCLKNEDNRVIGFHYVGPNAGEVTQGMALALRLKVKKKDFDNCIGIHPTDAESFMNLFVTISSGLSYAAKGGCGGGKCG	soluble
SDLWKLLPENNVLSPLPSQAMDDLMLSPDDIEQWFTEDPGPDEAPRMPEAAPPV	soluble
MGDSVLSAIQQTITQRKSANPSESYVAQLLHKGEDKILKKVIEEAGEVLMASKDKNPSHLVYEVADLWFHTMILLTHHDLKAEDVLDELARRQGLSGLVEKAARTES	not soluble
MEDLTNVSSLLNMERARDKANEEGLALLQEEIDKMVETTELMTGNIQSLKNKIQILASEVEEEEERVKQMHQINSSGVLSLPELSQKTLKAPTLQKEILALIPNQNALLKDLDILHNSSQMKSMSTFIEEAYKKLDAS	soluble
MKSHCNKMVGGELKPIIAALLPVEPFYPTQVPFVLSRYIYDVADRQQSSLDYVAVSALCALAAVIGNPHCS	not soluble
MSLTDSFTVRSIEGVCFRYPLATPVVTSFGKMLNRPAVFVRVVDEDGVEGWGEAWSNFPAPGAEHRARLINEVLAPGLVGRKLENPAQAFEVLSKGTEVLALQCGEPGPFAQAISGIDLALWDLFARRRNLPLWRLLGGQSSKIKVYASGINPGGAAQTAEAALKRGHRALKLKVGFGAETDIANLSALLTIVGAGMLAADANQGWSVDQALEMLPRLSEFNLRWLEEPIRADRPREEWRKLRANAKMPIAAGENISSVEDFEAALGDDVLGVIQPDIAKWGGLTVCVELARQILRVGKTFCPHYLGGGIGLLASAHLLAAVGRDGWLEVDANDNPLRDLFCGPVADVREGTIELNQNPGLGIVPDLSAIERYRSIEGHHHHHH	not soluble
MSEEHIAVTRFREYLRVNTEQPNPNYAACRDFLFKYADELGIARRSIETAPGVFLVIMTIPGSQPELPSIMLYSHTDVVPTFREHWTHDPYSAFKDEDGNIFARGAQDMKCVGVQQMEALRNLFAQGIRQWKRTIHLVWGPDEEIFGINGMKGFAKTDEFKKLNLGFSLDEGMPSDDDVYKVFYAERVAWWVKVTFPGNPGHGSQFMENTAMEKLERFLASARKFRNEQKVVLESNPNLTLGDVTTLNVNIVNGGVQFNVIPEKFEAYVDMRLTPHEDFNKIREMLDQWAKNAGEGVTYEFSQYSDQKPISAHTRDNSFWAAFEDSLNQENCKFEKGIMVASTDSRFVRYEGVNSINFSPMINTPFLPHDHNEYLNEKVFLRGLEIYQTIINNLGNV	not soluble
